Experimental findings from patent US20240270828A1 (UAB RESEARCH FOUNDATION, published 2024) are described below.

For assay [1], the target named is SARS-CoV-2 Spike protein (SARS-CoV-2, UniProt P0DTC2 16-1211). Kind of assay: SPR, hmAb captured, SARS-CoV-2 Spike injected, 1:1 fit. Background: In SPR one partner is held on a chip, and binding of the other changes the refractive index at the surface.
Assay [2] addresses T1, SARS-CoV-2 Omicron Spike protein (SARS-CoV-2 Omicron, UniProt P0DTC2 16-1213).
In assay [3] the target is T2, SARS-CoV-2 Spike protein (SARS-CoV-2, UniProt P0DTC2 16-1211).
The next assay addresses T3, 229E Spike protein (HCoV-229E, UniProt P15423 16-1115).
T3 sequence: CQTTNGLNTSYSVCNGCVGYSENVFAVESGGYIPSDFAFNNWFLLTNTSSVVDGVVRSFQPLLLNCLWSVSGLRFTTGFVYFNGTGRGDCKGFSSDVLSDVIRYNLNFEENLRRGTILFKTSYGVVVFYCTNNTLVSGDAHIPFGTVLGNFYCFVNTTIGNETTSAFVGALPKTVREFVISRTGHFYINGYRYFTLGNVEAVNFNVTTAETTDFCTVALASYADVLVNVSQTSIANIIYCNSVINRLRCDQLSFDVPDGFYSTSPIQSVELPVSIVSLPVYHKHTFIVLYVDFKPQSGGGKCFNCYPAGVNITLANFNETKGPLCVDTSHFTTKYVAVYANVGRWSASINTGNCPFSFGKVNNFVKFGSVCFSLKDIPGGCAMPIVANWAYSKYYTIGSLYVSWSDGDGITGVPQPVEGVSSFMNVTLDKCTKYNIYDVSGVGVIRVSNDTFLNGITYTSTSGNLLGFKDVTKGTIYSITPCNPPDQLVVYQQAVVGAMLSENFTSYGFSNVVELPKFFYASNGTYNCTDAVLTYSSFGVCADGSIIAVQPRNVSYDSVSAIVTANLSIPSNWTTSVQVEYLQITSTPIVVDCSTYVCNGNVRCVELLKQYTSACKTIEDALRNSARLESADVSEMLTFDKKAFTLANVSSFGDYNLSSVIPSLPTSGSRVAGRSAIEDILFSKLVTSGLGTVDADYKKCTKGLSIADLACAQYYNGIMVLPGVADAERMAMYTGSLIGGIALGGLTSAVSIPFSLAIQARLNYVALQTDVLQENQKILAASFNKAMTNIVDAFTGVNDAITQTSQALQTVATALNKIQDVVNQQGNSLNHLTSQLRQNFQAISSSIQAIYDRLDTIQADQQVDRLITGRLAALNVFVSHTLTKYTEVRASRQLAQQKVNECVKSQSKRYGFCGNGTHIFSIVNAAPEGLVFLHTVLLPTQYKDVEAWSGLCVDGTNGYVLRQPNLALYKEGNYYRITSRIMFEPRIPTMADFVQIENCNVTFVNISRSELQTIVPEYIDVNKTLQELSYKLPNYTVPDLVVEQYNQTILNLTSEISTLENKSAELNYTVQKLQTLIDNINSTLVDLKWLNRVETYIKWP
Nature of the assay: ELISA titration of 1249A8 on coated Spike proteins, mean Abs at 450 nm. Background: In an ELISA, binding on a coated surface is turned into a signal by an enzyme label.

The target in another assay is T4, NL63 Spike protein (HCoV-NL63, UniProt Q6Q1S2 19-1296).
T4 sequence: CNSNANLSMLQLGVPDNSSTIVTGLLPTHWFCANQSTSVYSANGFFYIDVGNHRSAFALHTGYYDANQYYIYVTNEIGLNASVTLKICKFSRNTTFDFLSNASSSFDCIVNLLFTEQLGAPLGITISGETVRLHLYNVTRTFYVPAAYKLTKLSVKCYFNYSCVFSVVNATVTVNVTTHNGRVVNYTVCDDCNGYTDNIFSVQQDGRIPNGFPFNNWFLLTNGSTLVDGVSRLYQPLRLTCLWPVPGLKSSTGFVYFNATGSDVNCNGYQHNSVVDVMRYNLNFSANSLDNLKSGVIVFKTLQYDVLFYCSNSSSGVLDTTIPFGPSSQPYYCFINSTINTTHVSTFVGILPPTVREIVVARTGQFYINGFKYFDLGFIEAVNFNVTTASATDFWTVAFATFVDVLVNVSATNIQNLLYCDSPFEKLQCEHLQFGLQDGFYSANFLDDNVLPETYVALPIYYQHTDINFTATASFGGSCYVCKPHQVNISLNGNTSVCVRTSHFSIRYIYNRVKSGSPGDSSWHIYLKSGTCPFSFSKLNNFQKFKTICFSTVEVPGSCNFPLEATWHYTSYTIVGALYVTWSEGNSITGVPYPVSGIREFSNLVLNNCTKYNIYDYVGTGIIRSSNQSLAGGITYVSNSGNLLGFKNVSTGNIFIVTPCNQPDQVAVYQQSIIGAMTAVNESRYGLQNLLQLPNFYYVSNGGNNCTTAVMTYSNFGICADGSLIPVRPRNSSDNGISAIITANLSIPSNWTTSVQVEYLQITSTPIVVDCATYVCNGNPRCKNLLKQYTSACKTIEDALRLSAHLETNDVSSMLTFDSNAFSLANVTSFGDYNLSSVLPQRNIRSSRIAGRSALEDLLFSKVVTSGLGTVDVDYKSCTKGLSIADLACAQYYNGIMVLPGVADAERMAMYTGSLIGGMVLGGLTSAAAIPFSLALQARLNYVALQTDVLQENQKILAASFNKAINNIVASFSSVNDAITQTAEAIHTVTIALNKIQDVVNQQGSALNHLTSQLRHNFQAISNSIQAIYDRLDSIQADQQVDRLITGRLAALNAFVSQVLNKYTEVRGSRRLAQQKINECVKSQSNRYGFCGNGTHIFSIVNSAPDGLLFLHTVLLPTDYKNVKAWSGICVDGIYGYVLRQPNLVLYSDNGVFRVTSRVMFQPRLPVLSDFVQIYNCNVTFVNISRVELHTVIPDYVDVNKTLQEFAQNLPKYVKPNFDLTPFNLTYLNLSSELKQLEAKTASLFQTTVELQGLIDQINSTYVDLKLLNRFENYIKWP
The description is as above.

The target of assay [4] is T1, SARS-CoV-2 Omicron Spike protein. Nature of the assay: BLI, mAb on anti-human Fc biosensors. On the technique in general: Biolayer interferometry detects binding as a change in optical thickness at a sensor tip.
Assay [5] deals with T2, SARS-CoV-2 Spike protein. Kind of assay: SPR/BLI, method not told apart.
Assay [6] deals with T2, SARS-CoV-2 Spike protein. Kind of assay: BLI, mAb on anti-human Fc biosensor, SARS-CoV-2 Spike in solution.

Read-outs that look alike come from different tables or passages of the source.

B1: CV3-25 (antibody, V domains shown)
VH: QVQLVESGAEVKKPGESLKISCKGSGYTFTRYWIGWVRQMPGKGLEWMGIIYPGDSDTRYSPSFQGHVTISADKSISTAYLQWNSLKASDTAMYYCARLPQYCSNGVCQRWFDPWGQGTLVTVSS
VL: EIVLTQSPSSVSASVGDRVTITCRASQGISSWLAWYQQKPGKAPKLLIYAASSLQSGVPSRFSGSGSGTDFTLTISSLQPEDFATYYCQQGNSFPYTFGQGTNLEIK
Take B1: the Kd with SARS-CoV-2 Spike protein [1] was 2.5 nM.

B2: CC40.8 (antibody, V domains shown)
VH: EVQLLESGGGLVQPGGSLRLSCAASGFTFSSYVMTWARQAPGKGLEWVSAISGTGYTYYADSVKGRFTVSRDNSKNTLFLQMSSLRAEDTAVYYCAITMAPVVWGQGTTVTVSS
VL: SYELTQPPSVSVSPGQTARITCSGDALPKRYAYWYQQKSGQAPILVIYEDKKRPSGIPERLSGSKSGTVATLTISGAQVEDEADYYCYSTDSSGNHAVFGGGTQLTVL
Consider B2, for which the dissociation constant Kd in the assay with SARS-CoV-2 Spike protein [1] turned out to be 1.6 nM.

B3: S2P6 (antibody, V domains shown)
VH: EVQLVQSGAEVKKPGASVKVSCKASGYTFTSQYMHWVRQAPGQGLEWIGIINPSGVHTSYAQKFQGRVTLTRDTSTSTLYMELSSLRSEDTAVYYCARGSPKGAFDYWGQGTLVTVSS
VL: not shown
In the assay with SARS-CoV-2 Spike protein [1], B3 registered a Kd of 9.7 nM.

B4: 1249A8 (antibody, V domains shown)
VH: QVQLVQSGAEVKKPGASMKVSCKASGFTFTDYYMHWVRQAPRQGLEWMGLINPSGSGTAYAQNFQGRVTLARDTSTSTLYMEMGSLTSDDTAVYYCARMDSSGSYDHWGQGTLVTVSS
VL: ETTLTQSPGTLSLSPGDRATLSCRASQTIRISYLAWYQQKPGQAPRLLVYGPSIRATGIPDRFSARGSGTDFTLTISRLEPEDFAVYYCQHYGSSPPRYTFGQGTKLEIK
Take B4: the Kd in assay [2] amounted to 0.517 nM; with SARS-CoV-2 Spike protein [3], 1.22 nM; in assay [4] it was 0.52 nM; in the assay with SARS-CoV-2 Spike protein [5], 1.8 nM; with SARS-CoV-2 Spike protein [6], 2.85 nM. Further, the binding result with 229E Spike protein and with NL63 Spike protein was “no binding (tested: about 1000 ng/ml)” each time.

One may read the Kd as the equilibrium constant for the complex coming apart. A high value points to lower affinity.
